The values that follow come from patent US20210253718A1, “FRIZZLED5 PROTEIN-BINDING AGENTS” (Modmab Therapeutics Corporation, priority 2016, published 2021).

One assay has as its target T1, FZD2 CRD (Homo sapiens, UniProt Q14332).
T1 construct: D35-P161; GPI anchor signal (C); expressed in transfected cells; host or cells: CHO cells, lentiviral pLenti-puro
Briefly: Flow cytometry of anti-FZD5 Fab binding to CHO cells overexpressing Frizzled CRD. The method, then:
Plasmids: pLCKO lentiviral vector used for knockout (TKO) library construction and expression of individual gRNAs was constructed as described previously (Hart et al., 2015). Briefly, single guide RNA (sgRNA) scaffold was amplified from px330 (Addgene 42230) and cloned into pLKO.TRC005 lentiviral vector (Broad Institute, Cambridge, Mass.) using AgeI/EcoRI restriction sites. BfuAI sites were added at the 5′ end of the sgRNA scaffold for cloning the TKO library or individual gRNA target sequences. Lenti Cas9-2A-BsdR vector used to generate Cas9 stable expression cell lines was constructed as described previously (Hart et al., 2015). Briefly, lentiCRISPR pXPR_001 (Addgene 49535) was modified through removal of the sgRNA scaffold region through NdeI/EcoRI digest and blunt ends generation using Large Klenow Fragment (NEB). 2A-puro was replaced with 2A-BsdR by PCR using the NheI/MluI sites. Each of the 10 human Frizzled cysteine rich domains (CRDs) were cloned into the lentiviral expression plasmid pLenti-puro in the following cassette: FZD_CRD-MYC-GPI.
Flow cytometry: Primary staining of cells was performed by treatment with 200 nM Frizzled profiler Fab. Alexa Fluor 488 AffiniPure F(ab′)2 was used as the secondary antibody (Jackson ImmunoResearch #109-546-097). c-Myc (9E10) IgG1 (primary antibody, Santa Cruz, lot #D0306) and Alexa Fluor 488 IgG (secondary antibody, Life technologies, lot #1458649) were used as controls. Dead cells were excluded by staining with Fixable Viability Dye eFluor 660 (eBioscience, catalogue number 65-0864). All reagents were used as per manufacturer's instructions. Flow cytometry was performed on a BD FACSCanto II flow cytometer (BD Biosciences), and data were analyzed with FlowJo software (FlowJo, LLC).
To confirm that the FZD5-WNT7B circuit is not driven simply by expression and rule out the possibility of a disconnect between RNA and protein levels for the Wnt receptors in HPAF-II cells, a panel of recombinant Fabs were generated, alternatively referred to herein as ‘Frizzled profiler’, that can detect and discriminate all but one of the ten Frizzled receptors. […] To characterize the binding specificity of these Fabs on cells, a panel of 10 CHO cell lines was generated, each expressing the CRD domain of a different myc-tagged Frizzled family member anchored at the plasma membrane through a GPI anchor (CHO-myc-FZDGPI). Despite the high sequence identity between Frizzled family members (FIG. 7A, FIG. 7B), selective Fabs were identified for FZD4, FZD5, FZD6 and FZD10 as assessed by immunofluorescence and flow cytometry (FIG. 7D and FIG. 8). […] The FZD8 CRD is most homologous to that of FZD5 (FIG. 7B). These Fabs can be used to discriminate expression of FZD1, FZD2, FZD4, FZD5, FZD6, FZD7, FZD8, FZD9 and FZD10 (FIG. 7D and FIG. 8). The ‘Frizzled profiler’ therefore consists of 10 different Fabs that can be used to discriminate expression of 9 different Frizzled family members. The Frizzled profiler was then used to confirm that HPAF-II cells express FZD1, FZD5, FZD6 and possibly FZD8 (FIG. 7E).
(§1) The binding of anti-FZD5 Fabs to cell surface-expressed Frizzled protein was further determined for each member of the Frizzled family via flow cytometry and immunofluorescence analysis of a panel of 10 CHO cell lines, each ectopically over-expressing the extracellular cysteine-rich domain (CRD) of a different Frizzled protein family member.
Background: Flow cytometry measures light scatter and fluorescence of single cells or particles in a stream.

For the next assay, the target named is T2, FZD1 CRD (Homo sapiens, UniProt Q9UP38).
T2 construct: D112-P238; GPI anchor signal (C); expressed in transfected cells; host or cells: CHO cells, lentiviral pLenti-puro
Briefly: Immunofluorescence of anti-FZD5 Fab binding to CHO cells overexpressing Frizzled CRD. Further details: key: −: no binding; +: very weak binder; ++: weak binder; +++: good binder; ++++: very good binder. A digest of the protocol:
(§2)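 CHO panel, 10 lines, each w/ one human FZD CRD-myc-GPI (lentiviral). Anti-FZD5 Fabs applied; surface binding scored by IF, cross-checked by FACS.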

The target in a further assay is T3, FZD3 CRD (Homo sapiens, UniProt Q9NPG1).
T3 construct: CRD of FZD1, FZD2, FZD3, FZD4, FZD5, FZD6, FZD7, FZD8, FZD9 or FZD10; GPI anchor signal (C); expressed in transfected cells; host or cells: CHO cells, lentiviral pLenti-puro
T3 sequence (Q9NPG1 23-136 limits assumed): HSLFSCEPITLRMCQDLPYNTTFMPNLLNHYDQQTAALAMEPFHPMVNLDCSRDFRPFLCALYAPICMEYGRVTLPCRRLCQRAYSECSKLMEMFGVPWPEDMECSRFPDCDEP
The description is as above. Further details: key: −: no binding; +: very weak binder; ++: weak binder; +++: good binder; ++++: very good binder. A digest of the protocol: as §2

The target in another assay is T4, FZD4 CRD (Homo sapiens, UniProt Q9ULV1).
T4 construct: E42-V167; GPI anchor signal (C); expressed in transfected cells; host or cells: CHO cells, lentiviral pLenti-puro
T4 sequence (Q9ULV1 42-167): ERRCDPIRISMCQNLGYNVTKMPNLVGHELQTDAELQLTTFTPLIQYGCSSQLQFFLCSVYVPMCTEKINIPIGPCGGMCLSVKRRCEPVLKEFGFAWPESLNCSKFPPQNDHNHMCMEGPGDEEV
Described as above. Set-up: key: −: no binding; +: very weak binder; ++: weak binder; +++: good binder; ++++: very good binder. The method in brief: as §2

A further assay has as its target T5, FZD5 CRD (Homo sapiens, UniProt Q13467).
T5 construct: K29-T156; GPI anchor signal (C); expressed in transfected cells; host or cells: CHO cells, lentiviral pLenti-puro
T5 sequence (Q13467 29-156): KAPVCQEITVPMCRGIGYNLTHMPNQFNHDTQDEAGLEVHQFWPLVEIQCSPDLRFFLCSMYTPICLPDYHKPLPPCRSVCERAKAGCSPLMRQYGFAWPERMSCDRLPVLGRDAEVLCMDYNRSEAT
The assay is described as above. Further details: key: −: no binding; +: very weak binder; ++: weak binder; +++: good binder; ++++: very good binder. The method in brief: as §2

For the next assay, the target named is T6, FZD7 CRD (Homo sapiens, UniProt O75084).
T6 construct: D45-S169; GPI anchor signal (C); expressed in transfected cells; host or cells: CHO cells, lentiviral pLenti-puro
Described as above. Set-up: key: −: no binding; +: very weak binder; ++: weak binder; +++: good binder; ++++: very good binder. A digest of the protocol:
as §2

The test system of assay [1] is CHO cells not expressing Frizzled CRD. The experiment in a line: Flow cytometry of anti-FZD5 Fab binding to CHO cells not expressing Frizzled CRD (background).
Excerpt: as §1

B1: Fab-2933: anti-FZD5 Fab with antibody variable region Fv-2933; CDR SEQ ID NOs: 35, 36, 72, 109, 148, 177 (antibody, V domains shown)
VH: EVQLVESGGGLVQPGGSLRLSCAASGFNLYSSYMHWVRQAPGKGLEWVASIYSSYGYTSYADSVKGRFTISADTSKNTAYLQMNSLRAEDTAVYYCARTVRGSKKPYFSGWAMDYWGQGTLVTVSS
VL: DIQMTQSPSSLSASVGDRVTITCRASQSVSSAVAWYQQKPGKAPKLLIYSASSLYSGVPSRFSGSRSGTDFTLTISSLQPEDFATYYCQQFWWYASWLFTFGQGTKVEIK
B1: the “Median fluorescence, Frizzled CRD overexpressed on CHO cells: FZD2” value (“Median fluorescence … FZD2” for short) with FZD2 CRD is given as 9.82. Moreover, the “Immunofluorescence binding, Frizzled CRD overexpressed on CHO cells: FZD1” value (shortened to “Immunofluorescence binding … FZD1”) with FZD1 CRD is listed as “+”. Moreover, in the assay with FZD3 CRD, the “Immunofluorescence binding, Frizzled CRD overexpressed on CHO cells: FZD3” value (shortened to “Immunofluorescence binding … FZD3”) was “−”. Also, in the assay with FZD4 CRD, the “Immunofluorescence binding, Frizzled CRD overexpressed on CHO cells: FZD4” value (shortened to “Immunofluorescence binding … FZD4”) was “+++”. Moreover, the “Immunofluorescence binding, Frizzled CRD overexpressed on CHO cells: FZD5” value (shortened to “Immunofluorescence binding … FZD5”) with FZD5 CRD is recorded as “++++”. Moreover, in the assay with FZD7 CRD, the “Immunofluorescence binding, Frizzled CRD overexpressed on CHO cells: FZD7” value (shortened to “Immunofluorescence binding … FZD7”) is listed as “+”. The “Median fluorescence, Frizzled CRD overexpressed on CHO cells: None” value (shortened to “Median fluorescence … None”) in assay [1] turned out to be 3.92.

B2: Fab-2932: anti-FZD5 Fab with antibody variable region Fv-2932; CDR SEQ ID NOs: 35, 36, 71, 108, 147, 153 (antibody, V domains shown)
VH: EVQLVESGGGLVQPGGSLRLSCAASGFNISYSYMHWVRQAPGKGLEWVASIYSSYSSTSYADSVKGRFTISADTSKNTAYLQMNSLRAEDTAVYYCARGALDYWGQGTLVTVSS
VL: DIQMTQSPSSLSASVGDRVTITCRASQSVSSAVAWYQQKPGKAPKLLIYSASSLYSGVPSRFSGSRSGTDFTLTISSLQPEDFATYYCQQWYGSFALITFGQGTKVEIK
As to B2, in the assay with FZD2 CRD, the “Median fluorescence … FZD2” value is 9.39. In the assay with FZD1 CRD, the “Immunofluorescence binding … FZD1” value was “−”. The “Immunofluorescence binding … FZD3” value with FZD3 CRD is “−”. Besides, the “Immunofluorescence binding … FZD4” value in the assay with FZD4 CRD was “−”. For the same molecule, the “Immunofluorescence binding … FZD5” value with FZD5 CRD is “++++”. For the same molecule, in the assay with FZD7 CRD, the “Immunofluorescence binding … FZD7” value was “++”. The “Median fluorescence … None” value in assay [1] came out at 3.59.

B3: Fab-2934: anti-FZD5 Fab with antibody variable region Fv-2934; CDR SEQ ID NOs: 35, 36, 73, 110, 149, 155 (antibody, V domains shown)
VH: EVQLVESGGGLVQPGGSLRLSCAASGFNISYSYMHWVRQAPGKGLEWVASIYSSSGSTSYADSVKGRFTISADTSKNTAYLQMNSLRAEDTAVYYCARGAIDYWGQGTLVTVSS
VL: DIQMTQSPSSLSASVGDRVTITCRASQSVSSAVAWYQQKPGKAPKLLIYSASSLYSGVPSRFSGSRSGTDFTLTISSLQPEDFATYYCQQWYHYGLITFGQGTKVEIK
B3: the “Median fluorescence … FZD2” value with FZD2 CRD was found to be 6.61. Further, the “Immunofluorescence binding … FZD1” value with FZD1 CRD was “−”. Also, the “Immunofluorescence binding … FZD3” value with FZD3 CRD is given as “−”. Also, in the assay with FZD4 CRD, the “Immunofluorescence binding … FZD4” value is given as “−”. Besides, the “Immunofluorescence binding … FZD5” value with FZD5 CRD is “++++”. In addition, the “Immunofluorescence binding … FZD7” value in the assay with FZD7 CRD is listed as “−”. In addition, the “Median fluorescence … None” value in assay [1] amounted to 3.13.
